T1: mouse CD47 (mouse, UniProt Q61735 19-303)
T1 construct: whole, on cells; also called CD47 on mouse RBCs; CD47 on 4T1 cells
T1 sequence (looked up): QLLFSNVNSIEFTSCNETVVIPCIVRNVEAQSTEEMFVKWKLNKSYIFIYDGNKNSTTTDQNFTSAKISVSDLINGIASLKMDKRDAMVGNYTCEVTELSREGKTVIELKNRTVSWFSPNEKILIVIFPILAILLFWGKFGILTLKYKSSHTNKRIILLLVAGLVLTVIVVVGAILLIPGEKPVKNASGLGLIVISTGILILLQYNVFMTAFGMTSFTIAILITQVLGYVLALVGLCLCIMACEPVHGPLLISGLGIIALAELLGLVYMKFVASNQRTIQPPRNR

T2: rat CD47 (rat, UniProt P97829 19-303)
T2 construct: whole, on cells; also called CD47 on rat RBCs
T2 sequence (looked up): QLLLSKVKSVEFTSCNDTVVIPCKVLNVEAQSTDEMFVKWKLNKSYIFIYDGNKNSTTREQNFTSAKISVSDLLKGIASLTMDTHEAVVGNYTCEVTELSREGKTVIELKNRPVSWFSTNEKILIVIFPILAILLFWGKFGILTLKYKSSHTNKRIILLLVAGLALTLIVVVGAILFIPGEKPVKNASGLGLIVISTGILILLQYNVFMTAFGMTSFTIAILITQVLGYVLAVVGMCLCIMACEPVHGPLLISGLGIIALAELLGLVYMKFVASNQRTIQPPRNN

T3: pig CD47 (pig, UniProt Q9GKE8 19-303)
T3 construct: whole, on cells; also called CD47 on porcine RBCs
T3 sequence (looked up): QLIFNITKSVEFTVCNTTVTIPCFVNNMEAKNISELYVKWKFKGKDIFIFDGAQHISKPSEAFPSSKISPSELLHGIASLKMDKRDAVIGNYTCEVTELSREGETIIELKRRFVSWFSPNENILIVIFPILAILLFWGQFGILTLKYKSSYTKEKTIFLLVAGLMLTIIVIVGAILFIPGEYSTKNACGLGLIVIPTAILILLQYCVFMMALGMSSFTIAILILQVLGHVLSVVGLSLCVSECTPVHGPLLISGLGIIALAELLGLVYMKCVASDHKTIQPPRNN

T4: dog CD47 (dog, UniProt A0A8I3PM61 19-310)
T4 construct: also called CD47 on dog RBCs
T4 sequence: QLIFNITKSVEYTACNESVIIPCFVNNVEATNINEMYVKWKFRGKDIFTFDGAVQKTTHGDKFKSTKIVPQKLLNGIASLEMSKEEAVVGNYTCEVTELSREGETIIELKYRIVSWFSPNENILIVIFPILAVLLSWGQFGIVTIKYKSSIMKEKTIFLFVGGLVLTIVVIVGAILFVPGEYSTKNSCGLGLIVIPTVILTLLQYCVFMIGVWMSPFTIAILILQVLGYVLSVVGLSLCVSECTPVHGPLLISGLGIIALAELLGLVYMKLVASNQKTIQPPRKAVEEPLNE


Tests used:
Test in all cases: flow cytometry on RBCs, CHO supernatant 10 ng/ml
human CD47 = target: T5, human CD47 (human, UniProt Q08722 19-323)
T5 construct: whole, on cells; also called CD47 on human RBCs; CD47 on OV10 cells
Description: (§1) RBCs are incubated for 60 minutes on ice with tissue culture supernatants containing the secreted humanized antibodies at a concentration of 10 ng/ml in a solution of phosphate buffered saline, pH 7.2, 2.5 mM EDTA (PBS+E), or with various concentrations of purified antibodies. Cells are then washed with cold PBS+E, and incubated for an additional hour on ice with FITC labeled donkey anti-human antibody (Jackson Immuno Research Labs, West Grove, Pa.; Catalogue #709-096-149) in PBS+E. Cells are then washed with PBS+E, and antibody binding is analyzed using a BD FACSAria Cell Sorter (Becton Dickinson) or a C6 Accuri Flow Cytometer (Becton Dickinson). Antibody binding is quantitated by comparison of mean fluorescence values relative to that of chimeric antibody >VxP037-01LC (SEQ ID NO:7))/>VxPO37-01HC (SEQ ID NO:57). The mean fluorescence value for each antibody is divided by the mean fluorescence value for the chimeric antibody.

mouse CD47 = target: T1, mouse CD47
Description: as §1

rat CD47 = target: T2, rat CD47
Description: as §1

pig CD47 = target: T3, pig CD47
Description: as §1

dog CD47 = target: T4, dog CD47
Description: as §1

T5 sequence (Q08722 19-323): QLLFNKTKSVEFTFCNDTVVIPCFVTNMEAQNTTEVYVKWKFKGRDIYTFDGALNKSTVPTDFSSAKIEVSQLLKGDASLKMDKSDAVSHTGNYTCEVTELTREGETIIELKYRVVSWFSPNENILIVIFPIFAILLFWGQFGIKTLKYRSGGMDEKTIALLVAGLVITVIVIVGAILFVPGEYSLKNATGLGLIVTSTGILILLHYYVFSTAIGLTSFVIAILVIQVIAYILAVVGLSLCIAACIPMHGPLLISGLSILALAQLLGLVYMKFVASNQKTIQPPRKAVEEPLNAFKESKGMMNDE

Binder	mean fluorescence relative to chimeric antibody (human CD47) [ratio]	mean fluorescence relative to chimeric antibody (mouse CD47) [ratio]	mean fluorescence relative to chimeric antibody (rat CD47) [ratio]	mean fluorescence relative to chimeric antibody (pig CD47) [ratio]	mean fluorescence relative to chimeric antibody (dog CD47) [ratio]
Clone 23 (pVxK7b-037-hum23-LC / pVxK7b-037-hum23-HC) (antibody, human IgG1, kappa) heavy: not shown light: DIVMTQTPLSLPVTPGEPASISCRSSQSLVHSNGNTYLHWYQQKPGKAPKLLIYKVSYRFSGVPDRFSGSGSGTDFTLKISRVEAEDVGVYYCSQNTHVPRTFGQGTKVEIKRTVAAPSVFIFPPSDEQLKSGTASVVCLLNNFYPREAKVQWKVDNALQSGNSQESVTEQDSKDSTYSLSSTLTLSKADYEKHKVYACEVTHQGLSSPVTKSFNRGEC	1.2	1.4	3.3	1.7	1.1
Clone 8 (pVxK7b-037-hum08-LC / pVxK7b-037-hum08-HC) (antibody, human IgG1, kappa) heavy: not shown light: DIVMTQTPLSLPVTPGEPASISCRSSQSLVHSNGNTYLHWYQQKPGKAPKLLIYKVSYRFSGVPDRFSGSGSGTDFTLKISRVEAEDVGVYYCSQNTHVPRTFGQGTKVEIKRTVAAPSVFIFPPSDEQLKSGTASVVCLLNNFYPREAKVQWKVDNALQSGNSQESVTEQDSKDSTYSLSSTLTLSKADYEKHKVYACEVTHQGLSSPVTKSFNRGEC	0.7	0.7	1.2	0.8	0.8
Clone 5 (pVxK7b-037-hum05-LC / pVxK7b-037-hum05-HC) (antibody, human IgG1, kappa) heavy: not shown light: DIVMTQTPLSLPVTPGEPASISCRSSQSLVHSNGNTYLHWYLQKPGQSPQLLIYKVSYRFSGVPDRFSGSGSGTDFTLKISRVEAEDVGVYYCSQNTHVPRTFGQGTKVEIKRTVAAPSVFIFPPSDEQLKSGTASVVCLLNNFYPREAKVQWKVDNALQSGNSQESVTEQDSKDSTYSLSSTLTLSKADYEKHKVYACEVTHQGLSSPVTKSFNRGEC	1	1	2.2	1.2	1.1
Clone 10 (pVxK7b-037-hum10-LC / pVxK7b-037-hum10-HC) (antibody, human IgG1, kappa, V domains shown) VH: QVQLQESGPGLVKPSQTLSLTCTVSGYTFTNYYVFWVRQARGQRLEWIGDINPVNGDTNFNEKFKNRLTISKDTSKNQVVLTMTNMDPVDTATYYCARGGYTMDYWGQGTLVTVSS VL: DIVMTQTPLSLPVTPGEPASISCRSSQSLVHSNGNTYLHWYLQKPGQSPQLLIYKVSYRFSGVPDRFSGSGSGTDFTLKISRVEAEDVGVYYCSQNTHVPRTFGQGTKVEIKR	1.1	1.2	2.9	1.5	1.1
Clone 9 (pVxK7b-037-hum09-LC / pVxK7b-037-hum09-HC) (antibody, human IgG1, kappa, also called Cl 9) heavy: not shown light: DVVMTQSPLSLPVTLGQPASISCRSSQSLVHSNGNTYLHWYQQKPGKAPKLLIYKVSYRFSGVPDRFSGSGSGTDFTLKISRVEAEDVGVYYCSQNTHVPRTFGQGTKVEIKRTVAAPSVFIFPPSDEQLKSGTASVVCLLNNFYPREAKVQWKVDNALQSGNSQESVTEQDSKDSTYSLSSTLTLSKADYEKHKVYACEVTHQGLSSPVTKSFNRGEC	1.2	1.4	3.7	1.6	1
Clone 24 (pVxK7b-037-hum24-LC / pVxK7b-037-hum24-HC) (antibody, human IgG1, kappa, V domains shown, also called Cl 24) VH: QVQLQESGPGLVKPGATVKISCKVSGYTFTNYYVFWVRQARGQRLEWIGDINPVNGDTNFNEKFKNRVTITADKSTSTAYMELSSLRSEDTAVYYCARGGYTMDYWGQGTLVTVSS VL: AIQLTQSPSSLSASVGDRVTITCRSSQSLVHSNGNTYLHWYQQKPGQAPRLLIYKVSYRFSGVPSRFSGSGSGTEFTLTISSLQPDDFATYYCSQNTHVPRTFGQGTKVEIKR	0.8	0.7	1.2	1.1	1
Clone 11 (pVxK7b-037-hum11-LC / pVxK7b-037-hum11-HC) (antibody, human IgG1, kappa, V domains shown, also called Cl 11) VH: QVQLQESGPGLVKPGATVKISCKVSGYTFTNYYVFWVRQARGQRLEWIGDINPVNGDTNFNEKFKNRVTITADKSTSTAYMELSSLRSEDTAVYYCARGGYTMDYWGQGTLVTVSS VL: EIVLTQSPATLSVSPGERATLSCRSSQSLVHSNGNTYLHWYQQKPGQAPRLLIYKVSYRFSGVPSRFSGSGSGTDFTFTISSLEAEDAATYYCSQNTHVPRTFGQGTKVEIKR	0.8	0.7	1.2	1.2	0.8
Clone 7 (pVxK7b-037-hum07-LC / pVxK7b-037-hum07-HC) (antibody, human IgG1, kappa, V domains shown) VH: QVQLQESGPGLVKPGATVKISCKVSGYTFTNYYVFWVRQARGQRLEWIGDINPVNGDTNFNEKFKNRVTITADKSTSTAYMELSSLRSEDTAVYYCARGGYTMDYWGQGTLVTVSS VL: DIVMTQTPLSLPVTPGEPASISCRSSQSLVHSNGNTYLHWYLQKPGQSPQLLIYKVSYRFSGVPDRFSGSGSGTDFTLKISRVEAEDVGVYYCSQNTHVPRTFGQGTKVEIKR	0.5	0.4	0.8	0.9	0.8
Clone 4 (pVxK7b-037-hum04-LC / pVxK7b-037-hum04-HC) (antibody, human IgG1, kappa, V domains shown) VH: QVQLQESGPGLVKPSQTLSLTCTVSGYTFTNYYVFWVRQAPGKGLEWVSDINPVNGDTNFNEKFKNRVTISVDTSKNQFSLKLSSVTAADTAVYYCARGGYTMDYWGQGTLVTVSS VL: DIQMTQSPSSLSASVGDRVTITCRSSQSLVHSNGNTYLHWYLQKPGQSPQLLIYKVSYRFSGIPARFSGSGSGTEFTLTISSLQSEDFAVYYCSQNTHVPRTFGQGTKVEIKR	0.6	0.6	1	0.6	0.6
Clone 12 (pVxK7b-037-hum12-LC / pVxK7b-037-hum12-HC) (antibody, human IgG1, kappa, V domains shown) VH: QVQLQESGPGLVKPGATVKISCKVSGYTFTNYYVFWVRQARGQRLEWIGDINPVNGDTNFNEKFKNRVTITADKSTSTAYMELSSLRSEDTAVYYCARGGYTMDYWGQGTLVTVSS VL: DIVMTQTPLSLPVTPGEPASISCRSSQSLVHSNGNTYLHWYQQKPGKAPKLLIYKVSYRFSGVPDRFSGSGSGTDFTLKISRVEAEDVGVYYCSQNTHVPRTFGQGTKVEIKR	0.8	0.6	1.3	1.4	0.9
